From publication PMC4440733 (PLoS ONE, 2015)

Assays:
His-tagged ErbB3 protein = target: T1, His-tagged ErbB3 protein (Homo sapiens (species , human …, UniProt P21860)); assay: ELISA; plates coated with anti-his antibody; His-tagged EGFR or ErbB3 captured in PBS with 1% BSA, 1 h RT; gradient-diluted antibodies or DVD-Ig proteins 1 h RT; detected with HRP-conjugated goat-anti-human antibodies; conditions: both partners purified
T1 construct: Receptor tyrosine-protein kinase ErbB3; also called receptor tyrosine-protein kinase 3; source: bought: Invitrogen
T1 sequence (P21860 20-643): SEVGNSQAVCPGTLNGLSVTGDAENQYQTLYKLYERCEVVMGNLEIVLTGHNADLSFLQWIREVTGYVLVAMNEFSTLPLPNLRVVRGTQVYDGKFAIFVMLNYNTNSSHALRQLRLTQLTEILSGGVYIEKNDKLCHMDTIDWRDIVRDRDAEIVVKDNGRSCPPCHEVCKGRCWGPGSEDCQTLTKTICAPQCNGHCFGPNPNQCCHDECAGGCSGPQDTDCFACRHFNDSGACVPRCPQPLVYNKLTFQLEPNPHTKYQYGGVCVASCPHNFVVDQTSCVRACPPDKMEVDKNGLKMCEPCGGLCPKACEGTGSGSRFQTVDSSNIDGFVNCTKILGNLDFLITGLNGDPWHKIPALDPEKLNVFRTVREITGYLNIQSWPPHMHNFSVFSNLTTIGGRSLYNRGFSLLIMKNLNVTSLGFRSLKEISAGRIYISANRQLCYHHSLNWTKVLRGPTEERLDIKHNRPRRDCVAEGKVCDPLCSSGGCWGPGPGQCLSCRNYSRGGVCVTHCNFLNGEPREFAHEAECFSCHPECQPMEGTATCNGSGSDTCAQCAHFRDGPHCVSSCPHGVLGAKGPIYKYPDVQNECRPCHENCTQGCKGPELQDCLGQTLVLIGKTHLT

His-tagged EGFR protein = target: T2, His-tagged EGFR protein (Homo sapiens (species , human …, UniProt P00533)); assay: as above; conditions: both partners purified
T2 construct: Epidermal growth factor receptor (EGFR); also called epidermal growth factor receptor; source: bought: Invitrogen

B1: anti-EGFR/ErbB3 bispecific Ab (bsAb), generated from published MEHD7945A sequences (bispecific antibody, V domains shown)
VH: EVQLVESGGGLVQPGGSLRLSCAASGFTLSGDWIHWVRQAPGKGLEWVGEISAAGGYTDYADSVKGRFTISADTSKNTAYLQMNSLRAEDTAVYYCARESRVSFEAAMDYWGQGTLVTVSS
VL: DIQMTQSPSSLSASVGDRVTITCRASQNIATDVAWYQQKPGKAPKLLIYSASFLYSGVPSRFSGSGSGTDFTLTISSLQPEDFATYYCQQSEPEPYTFGQGTKVEIK
notes: also called anti-EGFR/ErbB3 bsAb; two-in-one antibody; source: human embryonic kidney 293 cells, transient, purified (protein A)
**Q.** Which results are given for B1?
**A.** EC50 (His-tagged ErbB3 protein): 5.7 nM; EC50 (His-tagged EGFR protein): 1.3 nM
